From patent CN113150161A

Target: 小菜蛾钙黏蛋白毒素结合区(PxCad-TBR) (小菜蛾 (Plutella xylostella))
Test: competitive ELISA on coated PxCad-TBR, 500 μg/mL Cry2Aa, competitor 2G4 (3.75 μg/mL, molar ratio 294:1)

活化Cry2Aa毒素(分子量68 kDa) (from UniProt P0A377 50-633)
抑制作用 (%): 44%
